Source: the RNAGym collection of RNA variant scans (doi:10.1021/acssynbio.7b00057)

B1: Pistol ribozyme (parent)
chain: GGGUCGUUGUUCCAUAAUCGCGUGGAUAUGGCACGCAAGUUUCUACCGGGCACCGUAAAUGUCCGACUGGAGCCGUUCGGGCGGCUAUAAACAGACCUCAGGCCCGAAGCGUGGCGGCACCUGCCGCCGGUGGUAAAAAAGAUCGGAAGAGCACACGUCU

Variants of: B1
Experiment: aptazyme ON/OFF ratio, guanine; higher = stronger switching; co-transcriptional cleavage with and without guanine
In the case of GGGUCGGACCAUAAUAAUCGCGUGGAUAUGGCACGCAAGUUUCUACCGGGCACCGUAAAUGUCCGACUGGAGCCGUUCGGGCGGCUAUAAACAGACCUCAGGCCCGAAGCGUGGCGGCACCUGCCGCCGGUGGUAAAAAAGAUCGGAAGAGCACACGUCU, the “aptazyme ON/OFF ratio” value is reported as 1.02. For GGGUCGGACCAUUAUAAUCGCGUGGAUAUGGCACGCAAGUUUCUACCGGGCACCGUAAAUGUCCGACUGGAGCCGUUCGGGCGGCUAUAAACAGACCUCAGGCCCGAAGCGUGGCGGCACCUGCCGCCGGUGGUAAAAAAGAUCGGAAGAGCACACGUCU, the “aptazyme ON/OFF ratio” value was 1.03. In the case of GGGUCGGACCAUGAUAAUCGCGUGGAUAUGGCACGCAAGUUUCUACCGGGCACCGUAAAUGUCCGACUGGAGCCGUUCGGGCGGCUAUAAACAGACCUCAGGCCCGAAGCGUGGCGGCACCUGCCGCCGGUGGUAAAAAAGAUCGGAAGAGCACACGUCU, the “aptazyme ON/OFF ratio” value is reported as 1.04. In the case of GGGUCGGACCCGCAUAAUCGCGUGGAUAUGGCACGCAAGUUUCUACCGGGCACCGUAAAUGUCCGACUGGAGCCGUUCGGGCGGCUAUAAACAGACCUCAGGCCCGAAGCGUGGCGGCACCUGCCGCCGGUGGUAAAAAAGAUCGGAAGAGCACACGUCU, the “aptazyme ON/OFF ratio” value is reported as 1.03. For GGGUCGGACCCUCAUAAUCGCGUGGAUAUGGCACGCAAGUUUCUACCGGGCACCGUAAAUGUCCGACUGGAGCCGUUCGGGCGGCUAUAAACAGACCUCAGGCCCGAAGCGUGGCGGCACCUGCCGCCGGUGGUAAAAAAGAUCGGAAGAGCACACGUCU, the “aptazyme ON/OFF ratio” value was 1.03. In the case of GGGUCGGACCCACAUAAUCGCGUGGAUAUGGCACGCAAGUUUCUACCGGGCACCGUAAAUGUCCGACUGGAGCCGUUCGGGCGGCUAUAAACAGACCUCAGGCCCGAAGCGUGGCGGCACCUGCCGCCGGUGGUAAAAAAGAUCGGAAGAGCACACGUCU, the “aptazyme ON/OFF ratio” value is reported as 1.04. For GGGUCGGACCCAGAUAAUCGCGUGGAUAUGGCACGCAAGUUUCUACCGGGCACCGUAAAUGUCCGACUGGAGCCGUUCGGGCGGCUAUAAACAGACCUCAGGCCCGAAGCGUGGCGGCACCUGCCGCCGGUGGUAAAAAAGAUCGGAAGAGCACACGUCU, the “aptazyme ON/OFF ratio” value was 1. In the case of GGGUCGGACCCAUAUAAUCGCGUGGAUAUGGCACGCAAGUUUCUACCGGGCACCGUAAAUGUCCGACUGGAGCCGUUCGGGCGGCUAUAAACAGACCUCAGGCCCGAAGCGUGGCGGCACCUGCCGCCGGUGGUAAAAAAGAUCGGAAGAGCACACGUCU, the “aptazyme ON/OFF ratio” value is reported as 1.03. For GGGUCGGACCCAAAUAAUCGCGUGGAUAUGGCACGCAAGUUUCUACCGGGCACCGUAAAUGUCCGACUGGAGCCGUUCGGGCGGCUAUAAACAGACCUCAGGCCCGAAGCGUGGCGGCACCUGCCGCCGGUGGUAAAAAAGAUCGGAAGAGCACACGUCU, the “aptazyme ON/OFF ratio” value was 1.05. For GGGUCGGACCAGCAUAAUCGCGUGGAUAUGGCACGCAAGUUUCUACCGGGCACCGUAAAUGUCCGACUGGAGCCGUUCGGGCGGCUAUAAACAGACCUCAGGCCCGAAGCGUGGCGGCACCUGCCGCCGGUGGUAAAAAAGAUCGGAAGAGCACACGUCU, the “aptazyme ON/OFF ratio” value was 1.05. With GGGUCGGACCAACAUAAUCGCGUGGAUAUGGCACGCAAGUUUCUACCGGGCACCGUAAAUGUCCGACUGGAGCCGUUCGGGCGGCUAUAAACAGACCUCAGGCCCGAAGCGUGGCGGCACCUGCCGCCGGUGGUAAAAAAGAUCGGAAGAGCACACGUCU the “aptazyme ON/OFF ratio” value was 1.03. In the case of GGGUCGGACCAUCAUAAUCGCGUGGAUAUGGCACGCAAGUUUCUACCGGGCACCGUAAAUGUCCGACUGGAGCCGUUCGGGCGGCUAUAAACAGACCUCAGGCCCGAAGCGUGGCGGCACCUGCCGCCGGUGGUAAAAAAGAUCGGAAGAGCACACGUCU, the “aptazyme ON/OFF ratio” value is reported as 1.07. In the case of GGGUCGGACCUUUAUAAUCGCGUGGAUAUGGCACGCAAGUUUCUACCGGGCACCGUAAAUGUCCGACUGGAGCCGUUCGGGCGGCUAUAAACAGACCUCAGGCCCGAAGCGUGGCGGCACCUGCCGCCGGUGGUAAAAAAGAUCGGAAGAGCACACGUCU, the “aptazyme ON/OFF ratio” value is reported as 1.01. In the case of GGGUCGGACCUUAAUAAUCGCGUGGAUAUGGCACGCAAGUUUCUACCGGGCACCGUAAAUGUCCGACUGGAGCCGUUCGGGCGGCUAUAAACAGACCUCAGGCCCGAAGCGUGGCGGCACCUGCCGCCGGUGGUAAAAAAGAUCGGAAGAGCACACGUCU, the “aptazyme ON/OFF ratio” value is reported as 1.04. For GGGUCGGACCUUGAUAAUCGCGUGGAUAUGGCACGCAAGUUUCUACCGGGCACCGUAAAUGUCCGACUGGAGCCGUUCGGGCGGCUAUAAACAGACCUCAGGCCCGAAGCGUGGCGGCACCUGCCGCCGGUGGUAAAAAAGAUCGGAAGAGCACACGUCU, the “aptazyme ON/OFF ratio” value was 1.01. In the case of GGGUCGGACCUGGAUAAUCGCGUGGAUAUGGCACGCAAGUUUCUACCGGGCACCGUAAAUGUCCGACUGGAGCCGUUCGGGCGGCUAUAAACAGACCUCAGGCCCGAAGCGUGGCGGCACCUGCCGCCGGUGGUAAAAAAGAUCGGAAGAGCACACGUCU, the “aptazyme ON/OFF ratio” value is reported as 1.01. For GGGUCGGACCUGUAUAAUCGCGUGGAUAUGGCACGCAAGUUUCUACCGGGCACCGUAAAUGUCCGACUGGAGCCGUUCGGGCGGCUAUAAACAGACCUCAGGCCCGAAGCGUGGCGGCACCUGCCGCCGGUGGUAAAAAAGAUCGGAAGAGCACACGUCU, the “aptazyme ON/OFF ratio” value was 1.07. In the case of GGGUCGGACCCGAAUAAUCGCGUGGAUAUGGCACGCAAGUUUCUACCGGGCACCGUAAAUGUCCGACUGGAGCCGUUCGGGCGGCUAUAAACAGACCUCAGGCCCGAAGCGUGGCGGCACCUGCCGCCGGUGGUAAAAAAGAUCGGAAGAGCACACGUCU, the “aptazyme ON/OFF ratio” value is reported as 1.05. For GGGUCGGACCCGUAUAAUCGCGUGGAUAUGGCACGCAAGUUUCUACCGGGCACCGUAAAUGUCCGACUGGAGCCGUUCGGGCGGCUAUAAACAGACCUCAGGCCCGAAGCGUGGCGGCACCUGCCGCCGGUGGUAAAAAAGAUCGGAAGAGCACACGUCU, the “aptazyme ON/OFF ratio” value was 1.03. For GGGUCGGACCCGGAUAAUCGCGUGGAUAUGGCACGCAAGUUUCUACCGGGCACCGUAAAUGUCCGACUGGAGCCGUUCGGGCGGCUAUAAACAGACCUCAGGCCCGAAGCGUGGCGGCACCUGCCGCCGGUGGUAAAAAAGAUCGGAAGAGCACACGUCU, the “aptazyme ON/OFF ratio” value was 1.04. In the case of GGGUCGGACCACUAUAAUCGCGUGGAUAUGGCACGCAAGUUUCUACCGGGCACCGUAAAUGUCCGACUGGAGCCGUUCGGGCGGCUAUAAACAGACCUCAGGCCCGAAGCGUGGCGGCACCUGCCGCCGGUGGUAAAAAAGAUCGGAAGAGCACACGUCU, the “aptazyme ON/OFF ratio” value is reported as 1.1. With GGGUCGGACCACGAUAAUCGCGUGGAUAUGGCACGCAAGUUUCUACCGGGCACCGUAAAUGUCCGACUGGAGCCGUUCGGGCGGCUAUAAACAGACCUCAGGCCCGAAGCGUGGCGGCACCUGCCGCCGGUGGUAAAAAAGAUCGGAAGAGCACACGUCU the “aptazyme ON/OFF ratio” value was 1.06. With GGGUCGGACCACAAUAAUCGCGUGGAUAUGGCACGCAAGUUUCUACCGGGCACCGUAAAUGUCCGACUGGAGCCGUUCGGGCGGCUAUAAACAGACCUCAGGCCCGAAGCGUGGCGGCACCUGCCGCCGGUGGUAAAAAAGAUCGGAAGAGCACACGUCU the “aptazyme ON/OFF ratio” value was 1.1. For GGGUCGGACCUCGAUAAUCGCGUGGAUAUGGCACGCAAGUUUCUACCGGGCACCGUAAAUGUCCGACUGGAGCCGUUCGGGCGGCUAUAAACAGACCUCAGGCCCGAAGCGUGGCGGCACCUGCCGCCGGUGGUAAAAAAGAUCGGAAGAGCACACGUCU, the “aptazyme ON/OFF ratio” value was 1.01. In the case of GGGUCGGACCUCAAUAAUCGCGUGGAUAUGGCACGCAAGUUUCUACCGGGCACCGUAAAUGUCCGACUGGAGCCGUUCGGGCGGCUAUAAACAGACCUCAGGCCCGAAGCGUGGCGGCACCUGCCGCCGGUGGUAAAAAAGAUCGGAAGAGCACACGUCU, the “aptazyme ON/OFF ratio” value is reported as 1.01. In the case of GGGUCGGACCUCUAUAAUCGCGUGGAUAUGGCACGCAAGUUUCUACCGGGCACCGUAAAUGUCCGACUGGAGCCGUUCGGGCGGCUAUAAACAGACCUCAGGCCCGAAGCGUGGCGGCACCUGCCGCCGGUGGUAAAAAAGAUCGGAAGAGCACACGUCU, the “aptazyme ON/OFF ratio” value is reported as 1.04. For GGGUCGGACCCCCAUAAUCGCGUGGAUAUGGCACGCAAGUUUCUACCGGGCACCGUAAAUGUCCGACUGGAGCCGUUCGGGCGGCUAUAAACAGACCUCAGGCCCGAAGCGUGGCGGCACCUGCCGCCGGUGGUAAAAAAGAUCGGAAGAGCACACGUCU, the “aptazyme ON/OFF ratio” value was 1.01. With GGGUCGGACCACCAUAAUCGCGUGGAUAUGGCACGCAAGUUUCUACCGGGCACCGUAAAUGUCCGACUGGAGCCGUUCGGGCGGCUAUAAACAGACCUCAGGCCCGAAGCGUGGCGGCACCUGCCGCCGGUGGUAAAAAAGAUCGGAAGAGCACACGUCU the “aptazyme ON/OFF ratio” value was 0.986. For GGGUCGGACCUUCAUAAUCGCGUGGAUAUGGCACGCAAGUUUCUACCGGGCACCGUAAAUGUCCGACUGGAGCCGUUCGGGCGGCUAUAAACAGACCUCAGGCCCGAAGCGUGGCGGCACCUGCCGCCGGUGGUAAAAAAGAUCGGAAGAGCACACGUCU, the “aptazyme ON/OFF ratio” value was 1.06. With GGGUCGGACCAGGAUAAUCGCGUGGAUAUGGCACGCAAGUUUCUACCGGGCACCGUAAAUGUCCGACUGGAGCCGUUCGGGCGGCUAUAAACAGACCUCAGGCCCGAAGCGUGGCGGCACCUGCCGCCGGUGGUAAAAAAGAUCGGAAGAGCACACGUCU the “aptazyme ON/OFF ratio” value was 1.05. For GGGUCGGACCAGUAUAAUCGCGUGGAUAUGGCACGCAAGUUUCUACCGGGCACCGUAAAUGUCCGACUGGAGCCGUUCGGGCGGCUAUAAACAGACCUCAGGCCCGAAGCGUGGCGGCACCUGCCGCCGGUGGUAAAAAAGAUCGGAAGAGCACACGUCU, the “aptazyme ON/OFF ratio” value was 1.09. For GGGUCGGACCAGAAUAAUCGCGUGGAUAUGGCACGCAAGUUUCUACCGGGCACCGUAAAUGUCCGACUGGAGCCGUUCGGGCGGCUAUAAACAGACCUCAGGCCCGAAGCGUGGCGGCACCUGCCGCCGGUGGUAAAAAAGAUCGGAAGAGCACACGUCU, the “aptazyme ON/OFF ratio” value was 1.03. With GGGUCGGACCAAUAUAAUCGCGUGGAUAUGGCACGCAAGUUUCUACCGGGCACCGUAAAUGUCCGACUGGAGCCGUUCGGGCGGCUAUAAACAGACCUCAGGCCCGAAGCGUGGCGGCACCUGCCGCCGGUGGUAAAAAAGAUCGGAAGAGCACACGUCU the “aptazyme ON/OFF ratio” value was 1.03. For GGGUCGGACCAAAAUAAUCGCGUGGAUAUGGCACGCAAGUUUCUACCGGGCACCGUAAAUGUCCGACUGGAGCCGUUCGGGCGGCUAUAAACAGACCUCAGGCCCGAAGCGUGGCGGCACCUGCCGCCGGUGGUAAAAAAGAUCGGAAGAGCACACGUCU, the “aptazyme ON/OFF ratio” value was 1.01. For GGGUCGGACCAAGAUAAUCGCGUGGAUAUGGCACGCAAGUUUCUACCGGGCACCGUAAAUGUCCGACUGGAGCCGUUCGGGCGGCUAUAAACAGACCUCAGGCCCGAAGCGUGGCGGCACCUGCCGCCGGUGGUAAAAAAGAUCGGAAGAGCACACGUCU, the “aptazyme ON/OFF ratio” value was 1.02. With GGGUCGGACCCUAAUAAUCGCGUGGAUAUGGCACGCAAGUUUCUACCGGGCACCGUAAAUGUCCGACUGGAGCCGUUCGGGCGGCUAUAAACAGACCUCAGGCCCGAAGCGUGGCGGCACCUGCCGCCGGUGGUAAAAAAGAUCGGAAGAGCACACGUCU the “aptazyme ON/OFF ratio” value was 1.02.
